Assay results published in publication PMC11437124 (Nature Communications, 2024).
Positions count from the first letter of the chain named. Read-outs that look alike come from different tables or passages of the source. Values belong to the binder of their own block, whether it stands above or below them.

How the values were obtained:
[1] = target: T1, human TREM2 on live cells (Homo sapiens, UniProt Q9NZC2); assay: flow cytometry on cells
[2] = target: T2, human TREM2 extracellular domain (ECD) (Homo sapiens, UniProt Q9NZC2); assay: SPR
Target sequence in this assay (Q9NZC2 19-174): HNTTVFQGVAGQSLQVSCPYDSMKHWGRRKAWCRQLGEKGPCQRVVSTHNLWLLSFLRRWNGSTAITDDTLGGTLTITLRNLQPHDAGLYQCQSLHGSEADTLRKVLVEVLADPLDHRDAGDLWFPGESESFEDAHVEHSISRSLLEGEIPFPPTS

[3] = target: T2, human TREM2 extracellular domain (ECD)
[4] = target: T1, human TREM2 on live cells

B1: antibody 3.27H7 (antibody, V domains shown)
VH: EVQLVETGGSLVQPGGSLKLTCATSGFPFSNVWLHWIRRSPEKQLEWVAQIKARSDNYATYYAESVKGRFIVSRDDSKTTIYLQMNNLKEEDTAIYYCTGLDYWGQGVMVTVSS
VL: DVVLTQAPLSVSVTPGESASISCRSSRSLLTSKGITSLYWYLQKPGMSPHLLIYRMSNLASGIPDRFSGSGSETDFTLKISEVEPEDVGVYYCAQFLVYPYTFGAGTKLELK
binding result [1]: binds

B2: antibody 3.22B9 (antibody, V domains shown)
VH: AVQVVESGGGLVQPKGSLKISCAVSGFTFSDAAMHWVRQAPGKGLEWVARIRTKPNSYATYYADSVKGRFIISRDDSKNMVYLQMDNLKIEDTAMYYCTAGTTTAPFDYWGQGVMVTVSS
VL: DIVMIQSPSSVAVSAGETVTINCKSSQSLLYSGDHKNYLAWFQQKPGQSPKLLIYWASTRLSDVPDRVIGSGSGTDFTLTISSVQAEDLATYYCQQYYDTPLTFGSGTKVEIK
binding result [1]: binds

B3: antibody 3.18E5 (antibody, V domains shown)
VH: EVQLVETGGSLVQPGKSLKLTCATSGFPFSNVWMHWVRQSPEKQLEWIAHIKAKSDNYATYYAESVKGRFTISRDDSKTTIYLQMNSLKEADTAIYYCTGLDYWGQGVMVTVSS
VL: DTVLTQAPLSVSVTPGESASISCRSNKSLLGIRDITSLYWYLQKPGKSPQLLIYRMSNLASGVPDRFSGSGSETDFTLKISEVETEDVGVYYCAQFLRYPYTFGPGTKLELK
binding result [1]: binds

B4: antibody 3.50G1 (antibody, V domains shown)
VH: B3 VH with T80S, E90D, A91D
VL: B3 VL with Y41F, K112Q
binding result [1]: binds

B5: hu3.10C2 I107h insertion (antibody, V domains shown)
VH: EVQLVESGGGLVQPGGSLKLSCATSGFPFSNVWMHWVRQASGKGLEWIAHIKAKSDNYATYYAESVKGRFTISRDDSKTTIYLQMNSLKTEDTAVYYCTGILDYWGQGTTVTVSS
VL: DVVMTQSPLSLPVTPGEPASISCRSSRSLLTSKGITSLYWYLQKPGQSPQLLIYRMSNLASGIPDRFSGSGSGTDFTLKISRVEAEDVGVYYCAQFLVYPYTFGPGTKVEIK
binding result [2]: binds

Now from value to binder:

binding result [2]: binds
B6: hu3.10C2 I107h insertion/D116hE (antibody, V domains shown)
VH: B5 VH with D103E
VL: B5 VL

binding result [2]: binds
B7: hu3.10C2 G106hD/D116hE (antibody, V domains shown)
VH: EVQLVESGGGLVQPGGSLKLSCATSGFPFSNVWMHWVRQASGKGLEWIAHIKAKSDNYATYYAESVKGRFTISRDDSKTTIYLQMNSLKTEDTAVYYCTDLEYWGQGTTVTVSS
VL: B5 VL

binding result [2]: binds
B8: hu3.10C2 G106hD/I107h insertion/D116hE (antibody, V domains shown)
VH: B5 VH with G100D, D103E
VL: B5 VL

binding result [3]: binds
binding result [4]: binds
B9: 3.10A7 (antibody, V domains shown)
VH: AVQLVESGGGLVQPKESLKISCAASGITFSNAAMFWVRQAPGKGLEWVARIRTKPNNYATNYADSVKGRFTISRDDSKSMVYLQMDNLKTEDTAMYYCTAGTTVVPFDYWGQGVMVTVSS
VL: DIVMTQSPSSLAVSAGETVTIDCKSSQSLLYSGNQKTYLAWYQQKPGQSPKLLIYWASTRQSGVPDRFIGSGSGTDFTLTISSVQAEDLAIYYCQQYYDTPLTFGSGTKLEIK

binding result [1]: binds
B10: antibody 3.41B10 (antibody, V domains shown)
VH: AVQLVESGGGLVQPKESLKISCEASGFTFTNAAMNWVRQAPGKGLEWVARIRTKPNNYRTYYADSVRGRFTISRDDSKSMVHLQMDNLKTEDTAMYYCTGEGPQGGFVYWGQGTLVTVSS
VL: B9 VL with A12T, E17G, D22N, N34D, Q35R, T37N, A57S, T100S, E111D
